The source of these data is the nanobody polyreactivity screen of Harvey et al. (2022).

A short description of the data set: yeast display, Sf9 membrane polyspecificity reagent, FACS + sequencing; frameworks hold sequencing errors. Put shortly:
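Galactose induction of a Saccharomyces cerevisiae BJ5465 synthetic nanobody display library ran 36–48 hours. The cells were then stained for 1 hour at 4 °C with 10% biotinylated, detergent-solubilized Sf9 membrane reagent, pulled down on streptavidin microbeads and FACS-sorted into low and high (top ~1%) gates on expression and reagent-binding fluorescence. Labels for polyreactivity follow the gate of origin.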
As to “QVQLVESGGGLVQAGGSLRLSCAASGRIFDYYAMGWYRQAPGKERELVATITSGSRTYYADSVKGRFTISRDNAKNTVYLQMNSLKPEDTAVYYCNTVSFKRLGWRYDYWGQGTQVTVSS”, the “polyreactivity (PSR sort gate)” value is on record as “high polyreactivity”. Then “QVQLVESGGGLVQAGGSLRLSCAASGRIFDYYTMGWYRQAPGKERELVAGINSGDSTYYADYVKGRFTISRDNAKNTVYLQMNSLKPEDTAVYYCAASADWWYEYWGQGTQVTVSS”, with “high polyreactivity”; and “QVQLVESGGGLVQAGGSLRLSCAASGRIFEIYAMGWYRQAPGKERELVAAITDSGGSTYYAYSVKGRFTISRDNAKNTVYLQINSLKPEDTAVYYCAAVGYSYETWLFYYWGQGTQVTVSS”, with “low polyreactivity”; and “QVQLVESGGGLVQAGGSLRLSCAASGRIFEKYAMRWYREAPGKERELVAAMTRSGGRTYYADSVKGRFTISRDNAKNTVYLQMNSQKPEDTAVYYCAARYVSRFDWGQGTQVTVSS”, with “high polyreactivity”. Then “QVQLVESGGGLVQAGGSLRLSCAASGRIFEPYAMGWYRQAPGKERELVAAISWSGTSTRYADSVKGRFTISRDNAKNTVYLQMNSLKPEDTAVYYCAARGNNPARGGYWGQGTQVTVSS”, with “high polyreactivity”. For the sequence “QVQLVESGGGLVQAGGSLRLSCAASGRIFERNAKGWYRQAPGKERELVAALTYNGGRTYYADSVKGRFTITRDNAKNTVYLQLNSLKPEDTAVYNCNAQSRVTRSSYRGSPRYDYWGQGTQVTVSS”, the “polyreactivity (PSR sort gate)” value is “high polyreactivity”. With “QVQLVESGGGLVQAGGSLRLSCAASGRIFERYAMGRYRQAPGKERELVAAISVSGSGTYYADSVKGRFTISRDNAKNTVYLQINSLKPEDTAVYYCAADASLLGLYYYLFYLEVNYWGQGTQVTVSS”, the “polyreactivity (PSR sort gate)” value was “low polyreactivity”. The same measure for “QVQLVESGGGLVQAGGSLRLSCAASGRIFERYAMGWYRQAPGKERELVAGISISGGGTYYADSVKGRFTISRDIAKNTVYFQMNSLKPEDTAVYYCAATFPREEYGYWGQGTQVTVSS”: “low polyreactivity”; for “QVQLVESGGGLVQAGGSLRLSCAASGRIFERYAMGWYRQAPGKERELVAGISISGGGTYYADSVKGRFTISRDNAKNTFYLQMNSLNPEDTAVYYCSATFPREEYGYWGQGTQVTVSS”: “low polyreactivity”.

Regarding “QVQLVESGGGLVQAGGSLRLSCAASGRIFEYNAMGWYRQAPGKERELVAAITSDGSTNYADSVKGRFTISRDNEKNTVYLQMNSLKPEDTAVYYCNTRYSLYTKYAYYDEHDYWGQGTQVTVSS”, the “polyreactivity (PSR sort gate)” value is listed as “low polyreactivity”. Then “QVQLVESGGGLVQAGGSLRLSCAASGRIFEYYAMGWYRQAPGKERELVAAIRSGGRTYYADSVKGRFTISRDNAKNTVYLQMNSLKPEDTAVYYCNKLYRGGYGYWGQGTQVTVSS”, with “high polyreactivity”; and “QVQLVESGGGLVQAGGSLRLSCAASGRIFFIYAMGWYRQAPGKERELVAAISYDSGSTYYADSVKGRFTISRDNAKNTVSLQMNSLKPEDTAVYYCAAEWGLVIYSTYGYDYWGQGTQVTVSS”, with “low polyreactivity”; and “QVQLVESGGGLVQAGGSLRLSCAASGRIFFLYAMGWSRQAPGKERELVAAITKSGGSTYADSVKGRYTISRDNAKNPVYLQMNSLKPEDTAVYYCATENTDSRDSGYIVKYGSDYWGQRTQVTVSS”, with “low polyreactivity”. “QVQLVESGGGLVQAGGSLRLSCAASGRIFFNSAMGWYRQAPGKERELVAAIRGGGSTYADSVKGRFTISRDNAKNTVYLQMNSLKPEDTAVYYCAARYSGSPYHTRRYYYWGQGTQVTVSS”: the “polyreactivity (PSR sort gate)” value was “high polyreactivity”. Take “QVQLVESGGGLVQAGGSLRLSCAASGRIFFNYAMGWYRQAPGKERELVAAIRGGGSTYADSVKGRFTISRDNAKNTVYLQMNSLKPEDTAVYYCAARYSGSPYHTRRYYYWGQGTQVTVSS”: the “polyreactivity (PSR sort gate)” value is recorded as “high polyreactivity”.

For the sequence “QVQLVESGGGLVQAGGSLRLSCAASGRIFFRYAMGWYRPAPGKEREFVAAISGSAGSTYYADSVKGRFKISRDNAKNTVYLQMNSLKPEDTAVYYCAARKAKVSNGLKYDYWGQGTQVTVSS”, the “polyreactivity (PSR sort gate)” value is given as “high polyreactivity”.

For the sequence “QVQLVESGGGLVQAGGSLRLSCAASGRIFFSYAMGWYRQAPGKERELVAAITSGGSTNYADSVKGRFTISRDNAKNTVYLQMNSLKPEDTAVYYCNKARSSGYNFGYWGQGTQVTVSS”, the “polyreactivity (PSR sort gate)” value is on record as “low polyreactivity”. In the case of “QVQLVESGGGLVQAGGSLRLSCAASGRIFFTNAMGWYSQAPGKEREFVAAISKSGARTYYADSVKGRFTISRDNAKNTVYLQMISLKPEDTAVYYCAADVSVYGYYYWGQGTQVTVSS”, the “polyreactivity (PSR sort gate)” value is recorded as “high polyreactivity”. The same measure for “QVQLVESGGGLVQAGGSLRLSCAASGRIFFTYAMGWYRQAPGKERELVAAIDRSGTSTYYADSVKGRFTISRDNAKNTVYLQMNRLKPEDTAVYNCAARPNPNYDEMDYWGQGTQVNVSS”: “low polyreactivity”; for “QVQLVESGGGLVQAGGSLRLSCAASGRIFFTYTMGWYRQAPGKERELVAAITGGGARTYYADSVKGRFTISRDNSKNTVYLQMNSLKPEDTAVYYCAKGWQRIGFYYWGQGTQVTVSS”: “high polyreactivity”.

Turning to “QVQLVESGGGLVQAGGSLRLSCAASGRIFFTYTMGWYRQAPVNERELVAAITGGGARTYYADSVKVRFTISRDYAKNTVYLQMNSLKPEDSAVYYCAKGWQRIGFYYWGQGTQVTVSS”, the “polyreactivity (PSR sort gate)” value was “high polyreactivity”.

“QVQLVESGGGLVQAGGSLRLSCAASGRIFFYNTMGWYRQAPGKERELVATISWSGASTYYADSVKGRFTISRDNAKNTVYLQMNSLKPEDTAVDYCAAVTRYTGFDYWGQGTQVTVSS”: the “polyreactivity (PSR sort gate)” value is “high polyreactivity”. Then “QVQLVESGGGLVQAGGSLRLSCAASGRIFFYYAMGWYRQAPGKEREFVAAISTSSGSTYYADSVKGRFTISRDNAKNTVYLQMNSLKPEDTAVYYCAADEVYSRGIWPVEDDYWGQGTQVTVSS”, with “low polyreactivity”; and “QVQLVESGGGLVQAGGSLRLSCAASGRIFFYYAMGWYRQAPGKERELVATITASGDSTYYADSVKGRFTISRDNAKDTVYLQMNSLKPEDTAVYYCAADDGDYYEVDYWGQGTQVTVSS”, with “low polyreactivity”; and “QVQLVESGGGLVQAGGSLRLSCAASGRIFFYYAMGWYRQAPGKEREMVAAISWSGSSTYYADSVKGRFTISRDNAKNTVYLQMNSLKPEDTAVYYCAADYYIDYFYYDYWGQGTQVTVSS”, with “high polyreactivity”. As to “QVQLVESGGGLVQAGGSLRLSCAASGRIFGAYAMGWSRQAPGKERELVAAITSRGGNTYYADSVKGRFTISRDNAKNTVYLQMNSVKPEDTAVYYCAARHDKRRQYYVGQSAFDYWGQGTQVTVSS”, the “polyreactivity (PSR sort gate)” value is listed as “low polyreactivity”. The same measure for “QVQLVESGGGLVQAGGSLRLSCAASGRIFGAYAMGWYIQAPGKERELVAAIDIRGGNTYYADSVKGRFTISRDNAKNTVYFQMNSQKPVDTAVYYCAADTWYDAYNYWGQGTQVTVSS”: “low polyreactivity”.

With “QVQLVESGGGLVQAGGSLRLSCAASGRIFGAYAMGWYRQAPGKERELVAAITSAGSTHYADSVKGRFTISRDNAKNTVYLQMNCLKPQDTAVYYCAADRYPWPLQYVEYDSDYWGQGTQVTVSS”, the “polyreactivity (PSR sort gate)” value was “low polyreactivity”. Then “QVQLVESGGGLVQAGGSLRLSCAASGRIFGAYAMGWYRQAPGKERELVAAITSRGGNTYYADSVKGRFTISRDTAKNTVYLQMNSLKPEDTAVYSCAARHDKRRQYYVGQSAFDYWGQGTQVTVSS”, with “low polyreactivity”; and “QVQLVESGGGLVQAGGSLRLSCAASGRIFGAYAMGWYRQAPGKERELVATITSDGSTDYADSVKGRFTISRDNAKNTVYLQMNSLKPEDTAVYYCAVAYLWRPYDFREFDYWGQGTQVTVSS”, with “low polyreactivity”; and “QVQLVESGGGLVQAGGSLRLSCAASGRIFGAYTMGWYRQEPGKERELVAAISDGGDTYYADSVKGRFTISRDNAKNTVYFQMNRVKPEDTAVYYCAADAPYYAYYWFPSSFGIYGYWGQGTQVTVSS”, with “low polyreactivity”. Then “QVQLVESGGGLVQAGGSLRLSCAASGRIFGDNAMGWYRQAPGKERELVAGIRWRADRTYYADSVKWRFTISRDNAKNTVYLQMNSLKPEDTAVYYCNVGSFTGHSYGFGYWGQGTQVTVSS”, with “low polyreactivity”.

On to “QVQLVESGGGLVQAGGSLRLSCAASGRIFGDNTMGWYRQAPGKERELVAAISFTGGSTYYADSVKGRFTISRDNAKNTVYLQMNSLKPEDTAVYYCNADWVSTWGYDYWGQGTQVTVSS”, for which the “polyreactivity (PSR sort gate)” value is given as “low polyreactivity”.

Regarding “QVQLVESGGGLVQAGGSLRLSCAASGRIFGDYAKGWYRQAPGKERELVAAIRFDTGSTYYADSVKGRFTISRDTAKNTVYLQMNSLKPEDTAVYYCAAQHRGVQVTFGEYDYWGQGTQVTVSS”, the “polyreactivity (PSR sort gate)” value is recorded as “low polyreactivity”. The same measure for “QVQLVESGGGLVQAGGSLRLSCAASGRIFGDYAMGGSRQAPGKERELVAVISVGGRTSYADSVKGRFTISRDNAKNTVYLQMNSLKPEDTAVYYCATRLSTRDGGYWGQGTQVTVSS”: “low polyreactivity”; for “QVQLVESGGGLVQAGGSLRLSCAASGRIFGDYAMGWYRQAPGKEMELVAAITSAGSTHYADSVKGRFTISRDNAKNTVYLQMNILKPDDTAVYYCAADGIARAYVLFDAYDFLYDYWGQGTHVTVSS”: “low polyreactivity”; for “QVQLVESGGGLVQAGGSLRLSCAASGRIFGDYGMGWYRQAPGKERELVAAITDRGGTTYYADSVKGRFTISRDNAKNTVYLQMNSLKPEDTAVYYCNARQSDIFDYDYWGQGTQVTVSS”: “low polyreactivity”.

For the sequence “QVQLVESGGGLVQAGGSLRLSCAASGRIFGEKAMGWYRQAPGKERELVADITWSGTSTYYADSVKGRFTISRDNAKNTVYLQMNSLKPEDTAVYYCAASATLFSSRGKRYYWGQGTQVTVSS”, the “polyreactivity (PSR sort gate)” value is recorded as “low polyreactivity”. “QVQLVESGGGLVQAGGSLRLSCAASGRIFGENAMGWYRQAPGKEWEFVAVISISDASTYYADSVKGRFTISRDNAKNSVDFQMNSLKPEDTAVYYCAADLTDFLYVASDYWGQGTQVTVSS”: the “polyreactivity (PSR sort gate)” value was “low polyreactivity”. Then “QVQLVESGGGLVQAGGSLRLSCAASGRIFGFNARGWYRQAPGKERELVAGITDSSGRTNYADSVKGRFTISRDNAKNTVYLQMNSLKPEDTAVYYCARRRFGQYTERYYWGQGTQVTVSS”, with “low polyreactivity”; and “QVQLVESGGGLVQAGGSLRLSCAASGRIFGFYVMGWYRQAPGKERELVAAISSRGGSTYYADSVKGRFTISRDNAKNTVYLQMNSLKPEDTAVYYCAASVYREYYDNDDYWGQGTQVTVSS”, with “high polyreactivity”.
